Biological target: BCRs exhibiting the target structure on primary B-cells from the blood of leukemia patients
Experiment: cell-based or functional assay

B1: AVA-mAb01 (antibody, V domains shown)
VH: QVQLQQSGPGLVQPSQSLSITCTVSGFSLTSYGIHWVRQSPGKGLEWLGVIWRGGGTDSNAAFMSRLSITKDNSKSQVFFKMNSLQADDTAIYYCARSRYDEEESMNYWGQGTSVTVSS
VL: QIVLTQSPASLSASVGETVTITCRASGNIHSYLAWYQQKQGKSPQLLVYNAKTLADGVPSRFSGSGSGTQYSLKINSLQPEDFGSYYCQHFWNTPPTFGAGTKLELK
A lymphocyte count in the flow-through after double purification over LS columns with antibody-conjugated MACS MicroBeads (start: 80,000 lymphocytes/µl) (lymphocytes/µl) of under 5000 was found for B1 in this work.
